From patent publication US9260500B2, “Peptide and use thereof” (Takeda Pharmaceutical Company Limited, priority 2009, dated 2016)
Non-standard residues stand in square brackets, D forms with d. tBuAla = CC(C)(C)C[C@H](N)C(=O)O; dHyp = O=C(O)[C@H]1C[C@H](O)CN1; Cha = N[C@@H](CC1CCCCC1)C(=O)O; dIva = CC[C@@](C)(N)C(=O)O; dPip = O=C(O)[C@H]1CCCCN1; dNMeA = CN[C@H](C)C(=O)O; Aib = CC(C)(N)C(=O)O

Key:
[1] = molecular target: T1, human Y2 receptor (Homo sapiens, UniProt P49146); experiment: Receptor Binding Assay (RBA) for Human Y2, [125I]-PYY displacement on hY2R/CHO membrane fraction; settings: IC50 of test compound/IC50 of PYY(3-36) (PYY(3-36) taken as 1)
T1 construct: expressed in transfected cells; membrane fraction
T1 sequence (P49146 1-381): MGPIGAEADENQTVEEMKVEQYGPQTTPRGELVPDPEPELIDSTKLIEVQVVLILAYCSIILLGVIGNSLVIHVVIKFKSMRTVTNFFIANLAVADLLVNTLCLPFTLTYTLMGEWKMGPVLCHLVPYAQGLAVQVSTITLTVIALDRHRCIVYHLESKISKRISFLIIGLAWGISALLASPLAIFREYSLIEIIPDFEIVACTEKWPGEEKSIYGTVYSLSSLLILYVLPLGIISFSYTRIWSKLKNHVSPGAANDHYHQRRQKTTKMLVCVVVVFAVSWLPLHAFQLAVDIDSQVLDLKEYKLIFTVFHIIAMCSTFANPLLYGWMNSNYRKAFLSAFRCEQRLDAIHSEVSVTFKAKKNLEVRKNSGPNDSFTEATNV
Description: (1) Construction of Expression Plasmid for the Human Y2 Receptor (Y2R) Gene
PCR was performed by a reaction using Pfu DNA polymerase ([…]), with a human brain cDNA (PT3158-1, Clontech) as the template, wherein synthetic DNAs with the following sequences were used as a combination of 5′ and 3′ primers, whereby the human Y2R gene was cloned. Primer 1 was prepared on the basis of base sequence information on the human Y2R gene (Refseq ID No. NM_000910) with the addition of Kozak's consensus sequence. Primer 2 was prepared on the basis of base sequence information on the human Y2R gene.
The PCR product obtained was cloned into pCR4-Blunt-TOPO (Invitrogen), and the plasmid was extracted according to a conventional method (QIAwell 8 Plus, QIAGEN). After confirming the base sequence, the human Y2R gene was re-cloned by a PCR reaction with the plasmid DNA as the template, using Primer 1 as the 5′ primer and Primer 2 as the 3′ primer. The PCR was performed using the Pyrobest DNA polymerase (TaKaRa). The PCR product obtained was re-cloned into pCR-Blunt II-TOPO (Invitrogen), and the plasmid was extracted according to a conventional method (QIAGEN). An Xho I restriction enzyme digestion site and an Spe I restriction enzyme digestion site are present in the cloning site of the pCR-Blunt II-TOPO; a plasmid clone was selected wherein the human Y2R gene was inserted in the orientation such that the Xho I restriction enzyme digestion site was positioned upstream of Primer 1, and the Spe I restriction enzyme digestion site was positioned downstream of Primer 2. After confirming the base sequence, the plasmid clone was digested with the restriction enzymes Xho I and Spe I to yield a DNA fragment. The DNA fragment was inserted into the animal cell expression vector pAKKO-111H (the same plasmid as pAKKO-1.111H described in Biochem. Biophys. Acta, Hinuma, S. et al., 1219, 251-259 (1994)), which was enzymatically digested with Sal I and Spe I, to yield the expression plasmid pAK-hY2R (pAKKO-111H/Y2R).
(2) Test Method: Receptor Binding Assay (RBA) for Human Y2
A human NPY2R (hY2R) stable expression cell line was acquired by transducing the animal cell expression plasmid pAK-hY2R into CHO/dhfr-cells using the CellPhect Transfection kit (Amersham Pharmacia Biotech Co.). First, 240 μl of Buffer A (attached to the CellPhect Transfection kit) was added to 9.6 μg of the plasmid DNA dissolved in 240 μl of distilled water; this mixture was stirred and allowed to stand for 10 minutes, after which 480 μL of Buffer B (attached to the CellPhect Transfection kit) was added, and the mixture was vigorously stirred to form a liposome containing the DNA. 2.5×10^5 or 4×10^5 CHO/dhfr− cells (obtained from ATCC) were seeded to 60 mm petri dishes, and cultured in Ham's F-12 medium (Sigma Co.) containing 10% fetal bovine serum (BioWest Co.) at 37° C. in 5% gaseous carbon dioxide for 1 day, after which 480 μL of the liposome was added drop by drop on to the cells in each petri dish. This was cultured at 37° C. in 5% gaseous carbon dioxide for 6 hours, after which the cells were twice washed with serum-free Ham's F-12 medium; 3 mL of 15% glycerol was added onto the cells in the petri dish and treated for 2 minutes. This was again washed 3 times with serum-free Ham's F-12 medium, after which the cells were cultured in Ham's F-12 medium containing 10% fetal bovine serum at 37° C. in 5% gaseous carbon dioxide. The cells were dispersed by trypsinization and recovered from the petri dishes, and seeded to a 6-well plate at 2.5×10^4 or 4×10^4 cells per well; cultivation was begun in Dulbecco's modified Eagle medium <DMEM> medium (Sigma Co.) containing dialyzed 10% fetal bovine serum (Invitrogen Co.) at 37° C. in 5% gaseous carbon dioxide. Since plasmid-introduced transformant CHO cells grow in the medium, whereas cells without plasmid introduction die gradually, about 20 colonies of transformed CHO cell that had grown 9-13 days after the start of the cultivation were isolated. […]

[2] = molecular target: T1, human Y2 receptor; experiment: Human Y2 Receptor G Protein Binding Assay (GBA), [35S]GTPγS; assay type: biochemical; settings: EC50 of test compound/EC50 of PYY(3-36) (PYY3-36 taken as 1), hY2R/CHO membrane fraction
Description: (3) Test Method: Human Y2 Receptor G Protein Binding Assay (GBA)
The agonist activity of the compound of the present invention against the human Y2 receptor was measured by the method described below.
2 μL of the test compound, serially diluted with DMSO from 100 μM to 1 nM, was dispensed to a 96-well plate, and 100 μL of the membrane fraction, previously diluted with an assay buffer (50 mM Tris, 5 mM MgCl2, 150 mM NaCl, […], 0.03% NaN3, 0.1% BSA, pH 7.4) to 1 μg protein/mL, was dispensed thereto, subsequently, 100 μL of a [^35S]GTPγS (NEG030H, PerkinElmer, previously diluted with the assay buffer to 1 nM) was added, and they were mixed by pipetting. After incubation at room temperature for 120 minutes, the mixture was filtered through the cell harvester FilterMate (PerkinElmer) using the UniFilter-96 GF/C (PerkinElmer), and the filter was washed 3 times with a filtering buffer (50 mM Tris, 5 mM MgCl2, 150 mM NaCl, 0.03% NaN3, 0.05% CHAPS, pH 7.4). Thereafter, UniFilter-96 GF/C was dried in a mechanical drier for 1 hour, 15 μl of the liquid scintillator MicroScint O (PerkinElmer) was added to each well, and a measurement was taken using TopCount (PerkinElmer). The data obtained were analyzed using Prism to calculate the EC50 value. The agonist activity of the test compound was expressed as a ratio to the EC50 value of PYY3-36 taken as 1 (EC50 Ratio: EC50 of test compound/EC50 of PYY(3-36)). The results are shown in the GBA column in Table 5 (Table 5-1-Table 5-10).

Row | Substance | RBA IC50 Ratio [1] | GBA EC50 Ratio [2]
1 | Ac-[D-Hyp24, Cha27,28,36, Aib31]-PYY(23-36) (Ac-S[dHyp]RH[Cha][Cha]NL[Aib]TRQR[Cha]-NH2; SMILES CC(=O)N[C@@H](CO)C(=O)N1C[C@@H](O)C[C@@H]1C(=O)N[C@@H](CCCNC(=N)N)C(=O)N[C@@H](Cc1c[nH]cn1)C(=O)N[C@@H](CC1CCCCC1)C(=O)N[C@@H](CC1CCCCC1)C(=O)N[C@@H](CC(N)=O)C(=O)N[C@@H](CC(C)C)C(=O)NC(C)(C)C(=O)N[C@H](C(=O)N[C@@H](CCCNC(=N)N)C(=O)N[C@@H](CCC(N)=O)C(=O)N[C@@H](CCCNC(=N)N)C(=O)N[C@@H](CC1CCCCC1)C(N)=O)[C@@H](C)O) [compound No. 114] | 1.1 | 0.9
2 | Ac-[D-Hyp24, Cha27,36, Leu(Me)28, Lys30, Aib31]-PYY(23-36) (Ac-S[dHyp]RH[Cha][tBuAla]NK[Aib]TRQR[Cha]-NH2; SMILES CC(=O)N[C@@H](CO)C(=O)N1C[C@@H](O)C[C@@H]1C(=O)N[C@@H](CCCNC(=N)N)C(=O)N[C@@H](Cc1c[nH]cn1)C(=O)N[C@@H](CC1CCCCC1)C(=O)N[C@@H](CC(C)(C)C)C(=O)N[C@@H](CC(N)=O)C(=O)N[C@@H](CCCCN)C(=O)NC(C)(C)C(=O)N[C@H](C(=O)N[C@@H](CCCNC(=N)N)C(=O)N[C@@H](CCC(N)=O)C(=O)N[C@@H](CCCNC(=N)N)C(=O)N[C@@H](CC1CCCCC1)C(N)=O)[C@@H](C)O) [compound No. 203] | 0.38 | 0.76
3 | Ac-[D-Hyp24, Pya(4)26, Cha27,36, Aib28,31, Lys30]-PYY(23-36) [compound No. 207] | 1.1 | 0.86
4 | Ac-[D-Iva23, D-Pro24, Cha27,28,36, Aib31]-PYY(23-36) (Ac-[dIva][dP]RH[Cha][Cha]NL[Aib]TRQR[Cha]-NH2; SMILES CC[C@@](C)(NC(C)=O)C(=O)N1CCC[C@@H]1C(=O)N[C@@H](CCCNC(=N)N)C(=O)N[C@@H](Cc1c[nH]cn1)C(=O)N[C@@H](CC1CCCCC1)C(=O)N[C@@H](CC1CCCCC1)C(=O)N[C@@H](CC(N)=O)C(=O)N[C@@H](CC(C)C)C(=O)NC(C)(C)C(=O)N[C@H](C(=O)N[C@@H](CCCNC(=N)N)C(=O)N[C@@H](CCC(N)=O)C(=O)N[C@@H](CCCNC(=N)N)C(=O)N[C@@H](CC1CCCCC1)C(N)=O)[C@@H](C)O) [compound No. 183] | 20 | 31
5 | Ac-[D-MeAla22, D-Pro24, Cha27,28,36, Aib31]-PYY(22-36) (Ac-[dNMeA]S[dP]RH[Cha][Cha]NL[Aib]TRQR[Cha]-NH2; SMILES CC(=O)N(C)[C@H](C)C(=O)N[C@@H](CO)C(=O)N1CCC[C@@H]1C(=O)N[C@@H](CCCNC(=N)N)C(=O)N[C@@H](Cc1c[nH]cn1)C(=O)N[C@@H](CC1CCCCC1)C(=O)N[C@@H](CC1CCCCC1)C(=O)N[C@@H](CC(N)=O)C(=O)N[C@@H](CC(C)C)C(=O)NC(C)(C)C(=O)N[C@H](C(=O)N[C@@H](CCCNC(=N)N)C(=O)N[C@@H](CCC(N)=O)C(=O)N[C@@H](CCCNC(=N)N)C(=O)N[C@@H](CC1CCCCC1)C(N)=O)[C@@H](C)O) [compound No. 124] | 3.5 | 6.1
6 | Ac-[D-MeAla24, Cha27,28,36, Aib31]-PYY(23-36) (Ac-S[dNMeA]RH[Cha][Cha]NL[Aib]TRQR[Cha]-NH2; SMILES CC(=O)N[C@@H](CO)C(=O)N(C)[C@H](C)C(=O)N[C@@H](CCCNC(=N)N)C(=O)N[C@@H](Cc1c[nH]cn1)C(=O)N[C@@H](CC1CCCCC1)C(=O)N[C@@H](CC1CCCCC1)C(=O)N[C@@H](CC(N)=O)C(=O)N[C@@H](CC(C)C)C(=O)NC(C)(C)C(=O)N[C@H](C(=O)N[C@@H](CCCNC(=N)N)C(=O)N[C@@H](CCC(N)=O)C(=O)N[C@@H](CCCNC(=N)N)C(=O)N[C@@H](CC1CCCCC1)C(N)=O)[C@@H](C)O) [compound No. 110] | 3.4 | 2.2
7 | Ac-[D-Pic(2)24, Cha27,28,36, Aib31]-PYY(23-36) (Ac-S[dPip]RH[Cha][Cha]NL[Aib]TRQR[Cha]-NH2; SMILES CC(=O)N[C@@H](CO)C(=O)N1CCCC[C@@H]1C(=O)N[C@@H](CCCNC(=N)N)C(=O)N[C@@H](Cc1c[nH]cn1)C(=O)N[C@@H](CC1CCCCC1)C(=O)N[C@@H](CC1CCCCC1)C(=O)N[C@@H](CC(N)=O)C(=O)N[C@@H](CC(C)C)C(=O)NC(C)(C)C(=O)N[C@H](C(=O)N[C@@H](CCCNC(=N)N)C(=O)N[C@@H](CCC(N)=O)C(=O)N[C@@H](CCCNC(=N)N)C(=O)N[C@@H](CC1CCCCC1)C(N)=O)[C@@H](C)O) [compound No. 119] | 9.9 | 5.8
8 | Ac-[D-Pro24, Aib25,28,31, Cha27,36, Lys30]-PYY(23-36) (Ac-S[dP][Aib]H[Cha][Aib]NK[Aib]TRQR[Cha]-NH2; SMILES CC(=O)N[C@@H](CO)C(=O)N1CCC[C@@H]1C(=O)NC(C)(C)C(=O)N[C@@H](Cc1c[nH]cn1)C(=O)N[C@@H](CC1CCCCC1)C(=O)NC(C)(C)C(=O)N[C@@H](CC(N)=O)C(=O)N[C@@H](CCCCN)C(=O)NC(C)(C)C(=O)N[C@H](C(=O)N[C@@H](CCCNC(=N)N)C(=O)N[C@@H](CCC(N)=O)C(=O)N[C@@H](CCCNC(=N)N)C(=O)N[C@@H](CC1CCCCC1)C(N)=O)[C@@H](C)O) [compound No. 238] | 24 | 11
